By Kd is commonly meant the equilibrium constant for the complex coming apart. A higher Kd goes with weaker binding.

The experiment deals with T1, Bovine serum albumin (bovine, UniProt P02769 25-607).
T1 construct: Serum albumin, bovine (BSA); Unlabelled BSA used as analyte in SPR; also called BSA; source: bought: Sigma-Aldrich
The experiment can be described thus: SPR; BIAcore 3000; histidine-tagged SPARC immobilised on Sensor NTA chip to about 100 RU; BSA as analyte, room temperature, 20 ul/minute, 5 minutes association, 5 minutes dissociation; global Langmuir fitting. The conditions noted are these: both partners purified.

T1 sequence (P02769 25-607): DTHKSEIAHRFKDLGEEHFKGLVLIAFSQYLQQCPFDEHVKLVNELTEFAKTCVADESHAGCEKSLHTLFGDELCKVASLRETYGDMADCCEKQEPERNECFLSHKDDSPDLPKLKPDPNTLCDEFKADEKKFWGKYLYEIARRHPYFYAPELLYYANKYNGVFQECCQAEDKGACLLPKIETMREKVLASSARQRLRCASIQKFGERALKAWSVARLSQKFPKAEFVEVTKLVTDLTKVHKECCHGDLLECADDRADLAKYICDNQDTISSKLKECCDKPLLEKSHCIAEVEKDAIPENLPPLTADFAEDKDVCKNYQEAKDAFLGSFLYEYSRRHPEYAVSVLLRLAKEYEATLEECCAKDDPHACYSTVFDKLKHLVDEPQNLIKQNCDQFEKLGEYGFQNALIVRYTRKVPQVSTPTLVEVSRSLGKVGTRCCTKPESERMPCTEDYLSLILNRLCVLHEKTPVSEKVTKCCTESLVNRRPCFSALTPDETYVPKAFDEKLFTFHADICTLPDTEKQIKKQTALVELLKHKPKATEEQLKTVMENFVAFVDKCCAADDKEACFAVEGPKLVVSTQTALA

B1: Recombinant human SPARC (secreted protein acidic and rich in cysteine), histidine-tagged (natural protein, UniProt P09486 18-303, looked up)
chain: APQQEALPDETEVVEETVAEVTEVSVGANPVQVEVGEFDDGAEETEEEVVAENPCQNHHCKHGKVCELDENNTPMCVCQDPTSCPAPIGEFEKVCSNDNKTFDSSCHFFATKCTLEGTKKGHKLHLDYIGPCKYIPPCLDSELTEFPLRMRDWLKNVLVTLYERDEDNNLLTEKQKLRVKKIHENEKRLEAGDHPVELLARDFEKNYNMYIFPVHWQFGQLDQHPIDGYLSHTELAPLRAPLIPMEHCTTRFFETCDLDNDKYIALDEWAGCFGIKQKDIDKDLVI
notes: Secreted protein acidic and rich in cysteine (SPARC), human, recombinant; The histidine tag is named for the SPR experiment; also called rhSPARC; histidine-tagged recombinant SPARC; source: HEK293 cells transfected with SPARC, serum-free conditioned media; purified as described [25]
In turn, B1 came in with an equilibrium dissociation constant (Kd) of 18.9 µM. This counts as double-digit micromolar.
